Data: the domain aggregation screens of Martell et al. (2025)

assay: soluble fraction after stress (log2 fold change); higher = more stays soluble; pooled small domains, quantitative proteomics; conditions: stress: pH 4
Outline: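 Values are log2 fold changes, and higher ones mean more of the domain stayed soluble. Each fold change reflects the soluble amount of a domain after acid stress and is taken as a measure of aggregation propensity. The stress was pH 4, applied to pooled custom libraries of small protein domains analysed by high-throughput quantitative proteomics.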

Compared with “HMENEIFVPKVFMDWYNKVDKSIKVFKAFNLIEKETDPRLKEWVEDNQDEFAKIWLGQLLPVV”, “HMENFIPDDPKRIEIGMSVLHQRFGKGKVMQLEGNLPDMKATVNFEGEGQKQLLLKYARLKIV” is higher in “soluble fraction (log2)” value: -0.35 for the first, -0.0241 for the second.

Compared with “HMENIDVGQDYKVTMNTIQNLMKTGLVTGTQYKELLREMGVHSGMGAITAQQHQIALDFLNKTMDSA”, “HMENIIKISASYEGLRVDQFLSNYLKISRSKVQKYISEEKIFLNNVPTKTNRKVKLDDIISYNLNF” is higher in “soluble fraction (log2)” value: -0.444 for the first, 0.0839 for the second.

Going from “HMENITTILRSIKNEIKKNSTFVGDDFVNQARSMNQGQIKEKSIYGHGTKKEIEELRDEGVDVLNIPWIT” to “HMENKIIKNAAHATLKVKKDAGIEITTELIREAVILFHRIYSPNDNPNINWERIINELESHYT”, the “soluble fraction (log2)” value falls from 0.0184 to -0.993.

First: HMENLFPDYTMQDYRIVRSELSSKFKVQTVPVTTATATENKIVRQEPEAGSRITEGMTVILYYSIGPE
Second: HMENLRLSELTVERGHRLAGRTLADIASAPNSPKYLIVLIQRGQETVIPTGSTVILPGDVLILAQS
The “soluble fraction (log2)” value of the first is higher: 0.0963 for the first, -0.749 for the second.

“HMENMSFGTKLYTWLYGKLVGSDEIGNKYYTNINDPSDLNAKRWVIFNGEIEASKIPPHWHAWLHKSIDK” and “HMENMTLGQRIQALRKQHGLSQEGLGERLGVSRQAISRWEMDGAVPEVDKLIAMARLFGVSLNQLLGVE” are within 0.2 log units of each other in “soluble fraction (log2)” value: -0.265 for the first, -0.0911 for the second.

Compared with “HMENNIPANIKALIISYVNQNYPGAVIHSIERNSNGTYDVEIYYNNREYDLLFDAQGNFISGNVDDQ”, “HMENNIRLSVPDTESGQRIDSYLAEQIPGLTRSAVQNLLAEQAVTIAGKAVKKNYKLLGGEDILVQLPEVR” is higher in “soluble fraction (log2)” value: -0.366 for the first, ≥ 0.43 for the second.

“HMENPPISVVIPPSFRGQRIDKALGSLIGDYSRSKIQQWLQSGLVQSAGEPLLPKYTVLGNEQILIAVPS” and “HMENQGEDMRQQVKALVNADKTNITKLATATGYSRSTISMYLAGNYKGDVEAVERRLEEYMKTQG” are within 0.2 log units of each other in “soluble fraction (log2)” value: 0.03 for the first, 0.167 for the second.

First: HMENSYSVEDLALKAAISVDTIRYYQGLGLISPPQKNGRRAIYGNDHISRLEEIKKLAFEGFSLRQISLL
Second: HMENTIPSVIGRTLSDGVFLLESYGYVKGNVSEEFSEMPIGVIIRQFPGAGSAAEAGTRVDLVVSKGEEIV
The “soluble fraction (log2)” value of the first is higher: 0.22 for the first, -0.316 for the second.

Compared with “HMENVALYIRLKSMASVYDDVHGYNIEWIKSMIGLSIDIEKLRTVLEDVSWITKVEEDVYSFSKNAKPFE”, “HMENVQLRNFAIKATEAGIIKLSSDQRTFMWASNQKKLMTVPFDEHPYSAMAQFFKTDEGLAVFKSIEKKL” is higher in “soluble fraction (log2)” value: -2.32 for the first, -0.428 for the second.

“HMEPADALVAALVARGVSPSTARITVKQYPATRIQPQLEVFDYLVAQKDPKVSRNPPGFLLSAIRGEYA” and “HMEPAPELTPREQQVLARIALGMTDKAIAEELGVSHQTVRNHVARIYQKIKVHSRSQAVVWAREKGI” are within 0.2 log units of each other in “soluble fraction (log2)” value: 0.0562 for the first, 0.0801 for the second.

“HMEPDEESVRLKEEILSRIDYWHTTMPYMGTRKLAAKLRTEGYAVGRKLVRTYMREMGIHAVYP” and “HMEPELSVDMKPLDGLLLAIKKELQAAQMYTRLARASADAEQKMVFEQLANMEKGHKARLEDIYT” are within 0.2 log units of each other in “soluble fraction (log2)” value: -0.293 for the first, -0.348 for the second.

First: HMEPESTMIEISETLTNERLDRYLATKLPNVSRGGIQRLLREGNILVNGKKAKPTQHPVAGQKIEITWPNP
Second: HMEPEYIGELEKRIKKLKTHTYSSIDRLMKSISKKYKITTQVLHDDFKNKHNEIPDEWVKQF
The “soluble fraction (log2)” value of the first is lower: -0.11 for the first, 0.22 for the second.

Going from “HMEPKIKQIVPNVVNYPVEDAKNVLVNSGLIVQIRGQGNIVYDQVPKGGAEVTRGTTVILDLNPPPGA” to “HMEPKQIEVPNLVGISSAAARQTLSALGLHAVVKDSIWSETERIDTVLEQNPAGGALIKPEGTVYLRVSR”, the “soluble fraction (log2)” value rises from -0.768 to 0.0547.

“HMEPLIRTLEEQIAEKIKNYRKGTRVYDAEHVDRWISQLPEEERMVVLTETNRLLEQNYVDQAKLME” and “HMEPMLEIFDAKIDLADVLAVESGLVRLRGGAEVTSPRVDVDAGARLELDSGARLNVERLSY” are within 0.2 log units of each other in “soluble fraction (log2)” value: -0.803 for the first, -0.823 for the second.

Going from “HMEPMTDQQILEGFAEFKRQNPDLMNRPATQAIVNLTLPGGTPISFRSGAGAAALNQYLESIGMRAGP” to “HMEPPAPAPDIPYPSRVTVRREVDGWPHYYGTWTRTPPVLGYEGIWLVGVSLDGKVQFVPVDDVTIA”, the “soluble fraction (log2)” value falls from -0.0242 to -0.555.

Going from “HMEPREEFTFADLRANGLNGTAAAAGRRAALGAALGIGYGNAKQFLRRLNHYGVTRSEWEAALADLDE” to “HMEPSERYKALQSLLPDYAKRLKKKGVTRHQLFLEYRLTHPDGYARSRFGTYFQAYLALSHP”, the “soluble fraction (log2)” value rises from -0.0963 to ≥ 0.43.

“HMEPTLVVARDKDAKSPLVAKLMKELGVDAAPRVIVDDSVIGGAKLSHNHTEIDATYKTALINLYQAIT” and “HMEPVFSDPARQTLYQEVMELPAKYRVPLYLYYYEGYKVDEVGELLGLNASTVQTRLARARAKLKIQL” are within 0.2 log units of each other in “soluble fraction (log2)” value: -0.0179 for the first, -0.17 for the second.

Compared with “HMEQETVTVPDLVGKDVVAAQAELHEMGLSGKPDGTGTTVVSQFPVAGARVLKHTNVILYTED”, “HMEQFRENIVRIYMEIDDYENGAKFLEMGNNRDASFYELAGDFYKYFGENELANENYDLAISA” is lower in “soluble fraction (log2)” value: 0.0839 for the first, -1.39 for the second.

“HMEQIPEEYKKIYSLITDIPININDIAKKSLLELREVSSKLTMLELDGKVVKLPGNMYIRGDL” and “HMEQKELAPLVPQEDGSVKLTNLAGYSMREVAAALEGGNLSLIPIGSGTSWKQDPAPGTVLQPGNTVTVYF” are within 0.2 log units of each other in “soluble fraction (log2)” value: -0.0736 for the first, -0.209 for the second.
